US10435480
“And” between values parts separate entries of the source, which are not always exact repeats. Identical values can stand only once.

Assays:
[1] = biological target: Rabbit anti-mouse IgG-AP conjugate (Sigma Cat. No. A3688) (rabbit); assay: control without mouse IgG: conjugate only (1/5000) on OMP18, hydrophilic plate
[2] = biological target: Rabbit anti-mouse IgG-AP conjugate (Sigma Cat. No. A3688) (rabbit); assay: control without mouse IgG: conjugate only (1/5000) on OMP18, hydrophobic plate
[3] = biological target: Mouse IgG (Sigma Cat No. 15381) (mouse); assay: immunoassay, OMP18 adsorbed on hydrophilic plate, mouse IgG 2 ug/mL, anti-mouse IgG-AP and PNPP; well 1
[4] = biological target: Mouse IgG (Sigma Cat No. 15381) (mouse); assay: immunoassay, OMP18 adsorbed on hydrophilic plate, mouse IgG 2 ug/mL, anti-mouse IgG-AP and PNPP; well 2
[5] = biological target: Mouse IgG (Sigma Cat No. 15381) (mouse); assay: immunoassay, OMP18 adsorbed on hydrophobic plate, mouse IgG 2 ug/mL, anti-mouse IgG-AP and PNPP; well 1
[6] = biological target: Mouse IgG (Sigma Cat No. 15381) (mouse); assay: immunoassay, OMP18 adsorbed on hydrophobic plate, mouse IgG 2 ug/mL, anti-mouse IgG-AP and PNPP; well 2
OMP0 (E. coli) = OMP0 (E. coli) (UniProt P0A910); assay: M2 anti-FLAG-AP 1:1000 and PNPP on OMP0 treated PLA disc

Substance | A405 [1] [A405] | A405 [2] [A405] | A405 [3] [A405] | A405 [4] [A405] | A405 [5] [A405] | A405 [6] [A405] | Absorbance at 405 nm (OMP0 (E. coli))
OMP18 (from UniProt P38507 212-269; P38507 212-269) | 0.027 | 0.056 | 2.24 | 2.23 | 2.39 | 2.33 | 
M2 anti-FLAG alkaline phosphatase conjugated antibody (Sigma Cat No. A9469) |  |  |  |  |  |  | 0.312 A405 and 0.361 A405 and 0.374 A405
